Data from patent US20150259426A1 (Novartis, published 2015).

B1: 10F1 tri (trivalent anti-DR5 NB construct) (VHH, not shown: small tags and cut ends)
chain: EVQLVESGGGLVQPGGSLRLSCAASGFTFSRYWMYWVRQAPGKGLEWVSAINSGGGDTYYRDSVRGRFTISRDNFKNTLYLQMNSLKSEDTAVYYCAKAEGPPTFSLIRTMTVDPGAQGTQVTVSSGGGGSGGGGSGGGGSGGGGSGGGGSGGGGSGGGGSEVQLVESGGGLVQPGGSLRLSCAASGFTFSRYWMYWVRQAPGKGLEWVSAINSGGGDTYYRDSVRGRFTISRDNFKNTLYLQMNSLKSEDTAVYYCAKAEGPPTFSLIRTMTVDPGAQGTQVTVSSGGGGSGGGGSGGGGSGGGGSGGGGSGGGGSGGGGSEVQLVESGGGLVQPGGSLRLSCAASGFTFSRYWMYWVRQAPGKGLEWVSAINSGGGDTYYRDSVRGRFTISRDNFKNTLYLQMNSLKSEDTAVYYCAKAEGPPTFSLIRTMTVDPGAQGTQVTVSS
B2: 4E6 tri (trivalent anti-DR5 NB construct) (VHH)
chain: EVQLVESGGGSVQAGDSLRLSCAASGRTFGSIRVGWFRQTPGKEREFVAAINRNDGTTYYADSVKGRFTISRDNAKNTVYMQMASLKPEDTAVYYCAAGLQYNRSADRVPVGAVYWGQGTQVTVSSGGGGSGGGGSGGGGSGGGGSGGGGSGGGGSGGGGSEVQLVESGGGSVQAGDSLRLSCAASGRTFGSIRVGWFRQTPGKEREFVAAINRNDGTTYYADSVKGRFTISRDNAKNTVYMQMASLKPEDTAVYYCAAGLQYNRSADRVPVGAVYWGQGTQVTVSSGGGGSGGGGSGGGGSGGGGSGGGGSGGGGSGGGGSEVQLVESGGGSVQAGDSLRLSCAASGRTFGSIRVGWFRQTPGKEREFVAAINRNDGTTYYADSVKGRFTISRDNAKNTVYMQMASLKPEDTAVYYCAAGLQYNRSADRVPVGAVYWGQGTQVTVSS
notes: three VHH units in one chain joined by GlySer linkers; not shown: CMYC-HIS6 tag

Columns and labels:
[1] = biological target: T1, cell-bound human DR5 (Colo205 and other human cell lines) (human, UniProt O14763 56-440); assay: cell-based or functional assay
[2] = biological target: T1, cell-bound human DR5 (Colo205 and other …); assay: cell-based or functional assay; remark: listed apart in the source
hGITR = biological target: T2, hGITR (human, UniProt Q9Y5U5); assay: ELISA, receptor ECD from E. coli lysate on His capture plate;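 note: binding specificity screen across TNF receptor superfamily ectodomains, anti-V5 detection as expression reference, primary antibody incubation 1 h at room temperature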
T2 construct: extracellular domain, E. coli lysate captured on a His capture plate; Target named only on the sheet; the construct is not described in the text
T2 sequence (extracellular domain, looked up): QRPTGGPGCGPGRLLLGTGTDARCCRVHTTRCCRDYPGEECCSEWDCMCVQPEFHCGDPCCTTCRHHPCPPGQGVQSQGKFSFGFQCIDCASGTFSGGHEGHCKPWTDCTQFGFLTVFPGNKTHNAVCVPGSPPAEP

[3] = biological target: T3, TNFR1 extracellular domain (TNFRSF1A, Leu34-Thr211) (UniProt P19438 34-211); assay: as above
T3 construct: range 34-211; ECD cloned into pBadThioTopo; E. coli lysate on His capture plates
T3 sequence (looked up): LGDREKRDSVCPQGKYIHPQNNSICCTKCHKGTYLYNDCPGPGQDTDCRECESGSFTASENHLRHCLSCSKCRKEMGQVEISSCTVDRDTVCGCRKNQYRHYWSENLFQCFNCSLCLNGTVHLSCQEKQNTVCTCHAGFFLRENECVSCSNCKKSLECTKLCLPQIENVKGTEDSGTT

[4] = biological target: T4, TNFR3 extracellular domain (TNFRSF3, Pro30-Thr224) (UniProt P36941 30-224); assay: as above
T4 construct: range 30-224; ECD cloned into pBadThioTopo; E. coli lysate on His capture plates

[5] = biological target: T5, OX40 extracellular domain (TNFRSF4, Gly33-Gly212) (UniProt P43489 33-212); assay: as above
T5 construct: ECD cloned into pBadThioTopo; E. coli lysate on His capture plates
T5 sequence (looked up): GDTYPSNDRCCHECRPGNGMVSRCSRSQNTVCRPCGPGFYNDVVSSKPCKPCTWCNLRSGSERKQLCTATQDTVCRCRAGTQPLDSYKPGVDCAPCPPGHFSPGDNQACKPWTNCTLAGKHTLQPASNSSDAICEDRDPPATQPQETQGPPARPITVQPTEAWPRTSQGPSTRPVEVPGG

[6] = biological target: T6, CD40 extracellular domain (TNFRSF5, Val18-Leu192) (UniProt P25942 18-192); assay: as above
T6 construct: range 18-192; ECD cloned into pBadThioTopo; E. coli lysate on His capture plates

[7] = biological target: T7, FAS extracellular domain (TNFRSF6, Ser20-Gly175) (UniProt P25445 20-175); assay: as above
T7 construct: ECD cloned into pBadThioTopo; E. coli lysate on His capture plates
T7 sequence (looked up): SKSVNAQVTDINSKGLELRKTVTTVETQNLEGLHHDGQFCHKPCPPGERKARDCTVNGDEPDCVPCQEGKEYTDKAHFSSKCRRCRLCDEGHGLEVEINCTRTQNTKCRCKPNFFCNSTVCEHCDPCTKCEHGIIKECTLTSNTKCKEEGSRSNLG

[8] = biological target: T8, DcR3 (TNFRSF6B, Val27-Ala176) (UniProt O95407 27-176); assay: as above
T8 construct: range 27-176; ECD cloned into pBadThioTopo; E. coli lysate on His capture plates
T8 sequence (looked up): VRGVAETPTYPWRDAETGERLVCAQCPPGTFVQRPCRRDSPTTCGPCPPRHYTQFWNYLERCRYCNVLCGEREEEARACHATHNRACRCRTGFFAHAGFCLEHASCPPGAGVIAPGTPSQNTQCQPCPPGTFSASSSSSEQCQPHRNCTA

[9] = biological target: T9, CD27 extracellular domain (TNFRSF7, Thr21-Ser187) (UniProt P26842 21-187); assay: as above
T9 construct: range 21-187; ECD cloned into pBadThioTopo; E. coli lysate on His capture plates

[10] = biological target: T10, CD137 extracellular domain (TNFRSF9, Glu19-Ile188) (UniProt Q07011 19-188); assay: as above
T10 construct: range 19-188; ECD cloned into pBadThioTopo; E. coli lysate on His capture plates

[11] = biological target: T11, DcR2 extracellular domain (TNFRSF10D, Thr57-Thr198) (UniProt Q9UBN6 57-198); assay: as above
T11 construct: range 57-198; ECD cloned into pBadThioTopo; E. coli lysate on His capture plates
T11 sequence (looked up): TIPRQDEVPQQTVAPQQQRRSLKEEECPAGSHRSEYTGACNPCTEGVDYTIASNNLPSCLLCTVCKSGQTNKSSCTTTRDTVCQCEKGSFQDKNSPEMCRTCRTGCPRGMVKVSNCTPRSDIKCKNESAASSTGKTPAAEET

[12] = biological target: T12, OPG (TNFRSF11B, Lys17-Ile197) (UniProt O00300 17-197); assay: as above
T12 construct: range 17-197; ECD cloned into pBadThioTopo; E. coli lysate on His capture plates
T12 sequence (looked up): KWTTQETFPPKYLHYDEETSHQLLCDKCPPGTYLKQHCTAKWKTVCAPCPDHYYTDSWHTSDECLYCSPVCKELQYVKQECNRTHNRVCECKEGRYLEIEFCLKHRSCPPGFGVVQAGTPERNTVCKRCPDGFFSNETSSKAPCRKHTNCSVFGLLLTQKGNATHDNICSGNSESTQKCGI

[13] = biological target: T13, BAFFR extracellular domain (TNFRSF13C, Met1-Gly64) (UniProt Q96RJ3 1-64); assay: as above
T13 construct: range 1-64; ECD cloned into pBadThioTopo; E. coli lysate on His capture plates

[14] = biological target: cynomolgus DR5-Fc fusion protein (cyno DR5 amino acids 56 to 213 fused with human IgG1 Fc) (cynomolgus; human); assay: SPR (Biacore), CM5 chip coated with cynomolgus DR5-Fc, 1 to 100 nM NB construct

T10 sequence (Q07011 19-188 limits assumed): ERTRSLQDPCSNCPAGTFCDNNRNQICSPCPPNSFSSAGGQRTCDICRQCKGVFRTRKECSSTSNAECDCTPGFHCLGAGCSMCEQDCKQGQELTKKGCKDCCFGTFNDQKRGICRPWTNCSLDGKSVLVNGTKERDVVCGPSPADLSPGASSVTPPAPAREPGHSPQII
T13 sequence (Q96RJ3 1-64 limits assumed): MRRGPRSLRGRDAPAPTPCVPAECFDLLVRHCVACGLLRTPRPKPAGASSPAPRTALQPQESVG
T9 sequence (P26842 21-187 limits assumed): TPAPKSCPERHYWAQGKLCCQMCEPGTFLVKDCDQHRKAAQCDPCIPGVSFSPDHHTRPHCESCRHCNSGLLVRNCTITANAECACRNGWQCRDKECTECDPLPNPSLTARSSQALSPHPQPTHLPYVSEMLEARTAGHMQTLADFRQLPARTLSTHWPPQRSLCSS
T4 sequence (P36941 30-224 limits assumed): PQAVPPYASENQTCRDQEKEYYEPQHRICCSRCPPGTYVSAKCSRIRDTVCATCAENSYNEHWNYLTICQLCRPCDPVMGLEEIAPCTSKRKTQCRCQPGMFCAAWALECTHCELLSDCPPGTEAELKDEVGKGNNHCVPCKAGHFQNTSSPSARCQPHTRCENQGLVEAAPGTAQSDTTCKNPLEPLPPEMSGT
T6 sequence (P25942 18-192 limits assumed): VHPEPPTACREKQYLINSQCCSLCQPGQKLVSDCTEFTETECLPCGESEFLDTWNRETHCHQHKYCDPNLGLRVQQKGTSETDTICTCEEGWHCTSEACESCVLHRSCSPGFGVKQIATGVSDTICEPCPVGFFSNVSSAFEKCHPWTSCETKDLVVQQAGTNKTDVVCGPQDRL

| Binder | IC50, cell survival, Colo205 [1] [pM] | IC50, cell survival, A549 [2] [pM] | IC50, cell survival, ARPE-19 [2] [pM] | IC50, cell survival, H226 [2] [pM] | IC50, cell survival, H2052 [2] [pM] | IC50, cell survival, H2122 [2] [pM] | IC50, cell survival, Huvec [2] [pM] | IC50, cell survival, IMR-90 [2] [pM] | IC50, cell survival, Jurkat [2] [pM] | IC50, cell survival, M30 [2] [pM] | IC50, cell survival, MiaPaCa-2 [2] [pM] | IC50, cell survival, Molt4 [2] [pM] | IC50, cell survival, Panc-1 [2] [pM] | binding result (hGITR) | binding result [3] | binding result [4] | binding result [5] | binding result [6] | binding result [7] | binding result [8] | further results |
| --- | --- | --- | --- | --- | --- | --- | --- | --- | --- | --- | --- | --- | --- | --- | --- | --- | --- | --- | --- | --- | --- |
| B1 | 40.7 | ≥ 20000 | ≥ 20000 | 20 | 13 | 3 | ≥ 20000 | ≥ 20000 | ≥ 20000 | ≥ 20000 | ≥ 20000 | ≥ 20000 | ≥ 20000 | no binding (tested: not stated) | no binding (tested: not stated) | no binding (tested: not stated) | no binding (tested: not stated) | no binding (tested: not stated) | no binding (tested: not stated) | no binding (tested: not stated) | binding result [9]: no binding (tested: not stated); binding result [10]: no binding (tested: not stated); binding result [11]: no binding (tested: not stated); binding result [12]: no binding (tested: not stated); binding result [13]: no binding (tested: not stated); Kd [14]: < 600 pM |
| B2 | 37.9 | ≥ 20000 | ≥ 20000 | 20 | 6 | 2 | ≥ 20000 | ≥ 20000 | ≥ 20000 | ≥ 20000 | 23 | ≥ 20000 | ≥ 20000 | no binding (tested: not stated) | no binding (tested: not stated) | no binding (tested: not stated) | no binding (tested: not stated) | no binding (tested: not stated) | no binding (tested: not stated) | no binding (tested: not stated) | binding result [9]: no binding (tested: not stated); binding result [10]: no binding (tested: not stated); binding result [11]: no binding (tested: not stated); binding result [12]: no binding (tested: not stated); binding result [13]: no binding (tested: not stated); Kd [14]: < 90 pM |
